We go through 12 molecules from patent publication US20090304746A1.

Read-outs that look alike come from different tables or passages of the source. No end group written: not given here. Bounds are passed on as bounds.

The target of assay [1] is HLA-A*1101 (human).
For assay [2], the target named is HLA-B*3501 (human). To be noted: remark: other sources report otherwise.
The target in another assay is HLA-B*51 (human). The note with it: remark: other sources report otherwise.
A further assay deals with HLA-B*5301 (human). The note with it: remark: other sources report otherwise.
The next assay deals with HLA-B*5401 (human). The note with it: remark: other sources report otherwise.
In another assay the target is HLA-B*0702 (human). The note with it: remark: other sources report otherwise.
In assay [3] the target is HLA-B*3501 (human). The note with it: remark: other sources report otherwise. The source holds these as a separate data set.
Assay [4] has as its target HLA-A*03 (purified HLA class I molecule) (human).
For assay [5], the target named is HLA-DR3 (DRB1*0301) (human). Briefly: competition with 125I-labeled probe for purified HLA-DR3, gel filtration. The note with it: remark: other sources report otherwise.
Assay [6] deals with HLA-A*6801 (purified HLA class I molecule) (human). The note with it: remark: other sources report otherwise.
Assay [7] addresses HLA-A*3101 (human). As to the kind of experiment: competition with 125I-labelled standard peptide for purified HLA, gel filtration. In general terms: In gel filtration, larger molecules generally elute earlier.
In assay [8] the target is HLA-A*6801 (human). The assay is described as above.
Assay [9] addresses HLA-A*3301 (human).
The target of assay [10] is HLA-A*0301 (human). As to the kind of experiment: competition with 125I-labelled standard peptide on purified HLA, gel filtration.
In assay [11] the target is HLA-A*3101 (human). The assay is described as above.
Assay [12] has as its target HLA-A*6801 (human). Described as above.
The target in assay [13] is HLA-A*0301 (human). As to the kind of experiment: competition with 125I-labeled standard peptide on purified HLA, gel filtration.
The target in assay [14] is HLA-A*1101 (human). The assay is described as above.
Assay [15] has as its target HLA-A*3101 (human). The assay is described as above.
Assay [16] addresses HLA-A*3301 (human). The description is as above.
Assay [17] has as its target HLA-A*6801 (human). Described as above.
The target of assay [18] is HLA-A*0201 (human). As to the kind of experiment: competition with 125I-labelled standard peptide for purified HLA, gel filtration.
A further assay has as its target HLA-A*0206 (human). The assay is described as above.
In another assay the target is HLA-A*2401 (human). The description is as above.
Assay [19] addresses HLA-A*0201 (human). Briefly: competition with 125I-labeled probe for purified HLA, gel filtration.
For assay [20], the target named is HLA-A*0202 (human), P30375. The assay is described as above.
The target of the next assay is HLA-A*6802 (human). Described as above.

For LSNSLLRHH (modifications not checked), the binding affinity ratio (IC50 of standard peptide / IC50 of test peptide) with HLA-A*1101 (human) [1] is 0.0001.
As a reminder, the IC50 is the point on the concentration scale where inhibition reaches its midpoint. For the molecule NPAIASLMAF (modifications not checked) [Peptide 15.0237, HCV NS4 1789], the IC50 with HLA-B*3501 (human) [2] is 9 µM; with HLA-B*51 (human) it was 5 µM; in the assay with HLA-B*5301 (human), more than 30 µM; with HLA-B*5401 (human), more than 30 µM.
In the case of LPINALSNSL (modifications not checked) [Peptide 29.0085, HCV NS5 2474], the IC50 in the assay with HLA-B*0702 (human) came to 220 nM; with HLA-B*3501 (human) [3] it was 18 µM.
Molecule AACNWTRGER (modifications not checked) [Peptide 24.0103 (HCV NS1/E2 647, …)] yielded an IC50 in [4] of 36.7 µM.
As to GMQLAEQFKQKALGL (not fully specified) [HCV 1726 DR3B-motif 15-mer […] (core …)], the binding affinity ratio (IC50 of standard peptide / IC50 of test peptide) in [5] came out at 0.019.
With AVCTRGVAK (modifications not checked) [Peptide 1090.23 (HCV LORF 1183, …)], in assay [6], the IC50 is more than 30 µM.
Take ITRVESENK (modifications not checked) [HCV peptide … (polyprotein position 2250)]: the binding affinity ratio (IC50 of standard peptide / IC50 of test peptide) in the assay with HLA-A*3101 (human) [7] was 0.0007; with HLA-A*6801 (human) [8] it was 0.0092.
With PTGSGKSTK (modifications not checked) [HCV peptide … (polyprotein position 1236)], the binding affinity ratio (IC50 of standard peptide / IC50 of test peptide) with HLA-A*3301 (human) [9] was found to be 0.0006; with HLA-A*0301 (human) [10] it was 0.0002; in the assay with HLA-A*3101 (human) [11], 0.0008; with HLA-A*6801 (human) [12], 0.0002.
Consider VAYQATVCAR (modifications not checked) [HCV peptide … (HCV polyprotein position 1592)], for which the binding affinity ratio (IC50 of standard peptide / IC50 of test peptide) turned out to be 0.0005 with HLA-A*0301 (human) [13]; 0.0036 with HLA-A*1101 (human) [14]; 0.068 in the assay with HLA-A*3101 (human) [15]; 0.072 with HLA-A*3301 (human) [16]; 0.028 with HLA-A*6801 (human) [17].
Regarding ILGGWVAAQL (modifications not checked) [HCV peptide … (HCV polyprotein position 1816)], the values for the binding affinity ratio (IC50 of standard peptide / IC50 of test peptide) with HLA-A*0201 (human) [18] and with HLA-A*0206 (human) were 0.043 and 0.0005, respectively.
On to NIVDVQYLY (modifications not checked), for which, in the assay with HLA-A*2401 (human), the binding affinity ratio (IC50 of standard peptide / IC50 of test peptide) stood at 0.0001.
Consider YLVAYQATV (modifications not checked) [HCV NS4 1590 peptide 1013.02], for which the IC50 with HLA-A*0201 (human) [19] stood at 20 nM; in assay [20], 39 nM; with HLA-A*6802 (human) it was 33 nM.
